Experimental data as given in patent US20240109954A1.

Molecular target: EBOV GP displayed on vesicular stomatitis virus (VSV) pseudovirions (Ebola virus) (UniProt Q05320)
Assay: cell-based or functional assay

Chain of EBOV GP displayed on vesicular stomatitis virus (VSV) pseudovirions (Ebola virus) (Q05320 33-676 limits assumed): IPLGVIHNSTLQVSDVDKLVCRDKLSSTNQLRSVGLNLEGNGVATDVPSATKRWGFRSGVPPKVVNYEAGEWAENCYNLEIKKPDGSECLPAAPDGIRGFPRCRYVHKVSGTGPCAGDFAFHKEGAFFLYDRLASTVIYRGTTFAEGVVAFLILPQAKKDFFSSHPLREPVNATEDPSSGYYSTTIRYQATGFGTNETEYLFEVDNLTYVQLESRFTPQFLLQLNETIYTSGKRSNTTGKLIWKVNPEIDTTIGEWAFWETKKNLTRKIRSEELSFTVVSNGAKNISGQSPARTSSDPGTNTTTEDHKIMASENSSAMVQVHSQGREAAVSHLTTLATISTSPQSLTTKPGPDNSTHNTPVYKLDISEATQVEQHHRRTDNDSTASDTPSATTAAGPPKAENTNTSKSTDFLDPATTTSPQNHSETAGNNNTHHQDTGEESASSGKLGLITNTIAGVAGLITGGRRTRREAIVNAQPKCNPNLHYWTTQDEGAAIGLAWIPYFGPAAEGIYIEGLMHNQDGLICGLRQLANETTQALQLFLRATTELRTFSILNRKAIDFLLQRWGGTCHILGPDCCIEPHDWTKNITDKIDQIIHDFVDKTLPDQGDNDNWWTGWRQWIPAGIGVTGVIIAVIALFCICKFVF

How did the IC50, neutralization of VSV pseudotyped to display EBOV GP turn out when KZ52 (antibody) was run?
Its IC50, neutralization of VSV pseudotyped to display EBOV GP is 0.08 µg/mL.
